Test results published in patent publication US20170233497A1 (Genmab, published 2017).

Legend:
[1] = target: the molecule itself; experiment: native mass spectrometry; CH2-CH3 fragment homodimer
Protocol: (§1) The fragments were analyzed by native mass spectrometry. Samples were buffer-exchanged to 100 mM ammonium acetate pH 7, using 10 kDa MWCO spin-filter columns. Aliquots (˜1 μL) of serial diluted samples (20 μM-25 nM; monomer equivalent) were loaded into gold-plated borosilicate capillaries for analysis on a LCT mass spectrometer (Waters). The monomer signal, Mₛ, was defined as the area of the monomer peaks as a fraction of the area of all peaks in the spectrum (Mₛ/(Mₛ+Dₛ) where Dₛ=the dimer signal). The concentration of monomer at equilibrium, [M]eq, was defined as Mₛ·[M]₀ where [M]₀ is the overall protein concentration in terms of monomer. The dimer concentration at equilibrium, [D]eq, was defined as ([M]₀−[M]eq)/2. The KD, was then extracted from the gradient of a plot of [D]eq versus [M]eq².
It is described in Example 21 that there is a specific range in the strength of the interaction of the CH3-CH3 homodimers that allows efficient Fab-arm-exchange. The strength of the interactions at the CH3 interface should be such that it is possible that both heavy chains in the parental antibodies (homodimers) dissociate in the Fab-arm-exchange reaction and that they subsequently associate in the heterodimerization reaction. To generate a stable heterodimer, the strength of the heterodimer interaction should be greater than the strength of the homodimer interaction, such that it favors heterodimerization over homodimerization. To confirm this, the strength of the CH3-CH3 interaction in the heterodimers was measured and compared to the strength in the homodimers. The KD of the CH2-CH3 fragments derived from IgG1-K409R, IgG1-F405L and IgG1-ITL homodimers were measured as described in Example 21. For the determination of the KD in heterodimers, CH2-CH3 domain fragments (G1-F405L and G1-ITL) were mixed with the IgG1Δhinge fragment of IgG1-7D8-K409R, which contain all antibody domains except the hinge. […] The fragments were mixed and analyzed after 24 hours by native mass spectrometry as described in Example 21. […]

[2] = target: the molecule itself; experiment: native mass spectrometry; KD compared to the wild type IgG1 CH2-CH3 fragment
Protocol: as §1, with “To measure the effect of the above mentioned CH3 mutations on the strength of the CH3-CH3 interaction, fragments composed of only the CH2-CH3 domains were made. The lack of a hinge region in these fragments prevented covalent inter-heavy chain disulfide bonds. The fragments” for “The fragments”

[3] = target: the molecule itself; experiment: native mass spectrometry; monomer-dimer equilibrium of the hinge-less CH2-CH3 fragment (homodimer)
Protocol: as §1, with “To measure the effect of the above mentioned CH3 mutations on the strength of the CH3-CH3 interaction, fragments composed of only the CH2-CH3 domains were made. The lack of a hinge region in these fragments prevented covalent inter-heavy chain disulfide bonds. The fragments” for “The fragments”

[4] = target: the molecule itself; experiment: native mass spectrometry; KD compared to the wild type IgG4 CH2-CH3 fragment
Protocol: as §1, with “To measure the effect of the above mentioned CH3 mutations on the strength of the CH3-CH3 interaction, fragments composed of only the CH2-CH3 domains were made. The lack of a hinge region in these fragments prevented covalent inter-heavy chain disulfide bonds. The fragments” for “The fragments”

Protein | Kd [1] | fold-difference [2] | Kd [3] | fold-difference [4]
CH2-CH3 fragment of human IgG1 with K409R (other, UniProt P01857-1 224-330, looked up, name in EU numbering, range 341-447; As m1, with the mutation; also called G1-K409R; not shown: N-terminal 6 amino acid His tag) GQPREPQVYTLPPSRDELTKNQVSLTCLVKGFYPSDIAVEWESNGQPENNYKTTPPVLDSDGSFFLYSRLTVDKSRWQQGNVFSCSVMHEALHNHYTQKSLSLSPGK | 110 nM | 0.03 fold | 110 nM | 
CH2-CH3 fragment of human IgG1 with F405L (other, UniProt P01857-1 224-330, looked up, name in EU numbering, range 341-447; As m1, with the mutation; also called G1-F405L; not shown: N-terminal 6 amino acid His tag) GQPREPQVYTLPPSRDELTKNQVSLTCLVKGFYPSDIAVEWESNGQPENNYKTTPPVLDSDGSFLLYSKLTVDKSRWQQGNVFSCSVMHEALHNHYTQKSLSLSPGK | 850 nM |  |  | 
CH2-CH3 fragment of human IgG4 with L351K (other, UniProt P01861-1 221-327, looked up, name in EU numbering, range 341-447; As m7, with the mutation; also called G4-L351K; not shown: N-terminal 6 amino acid His tag) GQPREPQVYTKPPSQEEMTKNQVSLTCLVKGFYPSDIAVEWESNGQPENNYKTTPPVLDSDGSFFLYSRLTVDKSRWQEGNVFSCSVMHEALHNHYTQKSLSLSLGK |  |  | 740 nM | 0.06 fold
CH2-CH3 fragment of human IgG1 with T350I (other, UniProt P01857-1 224-330, looked up, name in EU numbering, range 341-447; As m1, with the mutation; also called G1-T350I; not shown: N-terminal 6 amino acid His tag) GQPREPQVYILPPSRDELTKNQVSLTCLVKGFYPSDIAVEWESNGQPENNYKTTPPVLDSDGSFFLYSKLTVDKSRWQQGNVFSCSVMHEALHNHYTQKSLSLSPGK |  | 0.4 fold | 7 nM | 
CH2-CH3 fragment of human IgG4 with R409W (other, UniProt P01861-1 221-327, looked up, name in EU numbering, range 341-447; As m7, with the mutation; also called G4-R409W; not shown: N-terminal 6 amino acid His tag) GQPREPQVYTLPPSQEEMTKNQVSLTCLVKGFYPSDIAVEWESNGQPENNYKTTPPVLDSDGSFFLYSWLTVDKSRWQEGNVFSCSVMHEALHNHYTQKSLSLSLGK |  |  | 34000 nM | 0.0014 fold
CH2-CH3 fragment of human IgG4 with R409M (other, UniProt P01861-1 221-327, looked up, name in EU numbering, range 341-447; As m7, with the mutation; also called G4-R409M; not shown: N-terminal 6 amino acid His tag) GQPREPQVYTLPPSQEEMTKNQVSLTCLVKGFYPSDIAVEWESNGQPENNYKTTPPVLDSDGSFFLYSMLTVDKSRWQEGNVFSCSVMHEALHNHYTQKSLSLSLGK |  |  | 3 nM | 16 fold
CH2-CH3 fragment of human IgG4 with K370E (other, UniProt P01861-1 221-327, looked up, name in EU numbering, range 341-447; As m7, with the mutation; also called G4-K370E; not shown: N-terminal 6 amino acid His tag) GQPREPQVYTLPPSQEEMTKNQVSLTCLVEGFYPSDIAVEWESNGQPENNYKTTPPVLDSDGSFFLYSRLTVDKSRWQEGNVFSCSVMHEALHNHYTQKSLSLSLGK |  |  | 2 nM | 24 fold
CH2-CH3 fragment of human IgG4 with F405A (other, UniProt P01861-1 221-327, looked up, name in EU numbering, range 341-447; As m7, with the mutation; also called G4-F405A; not shown: N-terminal 6 amino acid His tag) GQPREPQVYTLPPSQEEMTKNQVSLTCLVKGFYPSDIAVEWESNGQPENNYKTTPPVLDSDGSFALYSRLTVDKSRWQEGNVFSCSVMHEALHNHYTQKSLSLSLGK |  |  | 19000 nM | 0.0025 fold
CH2-CH3 fragment of human IgG4 with R409T (other, UniProt P01861-1 221-327, looked up, name in EU numbering, range 341-447; As m7, with the mutation; also called G4-R409T; not shown: N-terminal 6 amino acid His tag) GQPREPQVYTLPPSQEEMTKNQVSLTCLVKGFYPSDIAVEWESNGQPENNYKTTPPVLDSDGSFFLYSTLTVDKSRWQEGNVFSCSVMHEALHNHYTQKSLSLSLGK |  |  | 720 nM | 0.07 fold
CH2-CH3 fragment of human IgG4 with E357T (other, UniProt P01861-1 221-327, looked up, name in EU numbering, range 341-447; As m7, with the mutation; also called G4-E357T; not shown: N-terminal 6 amino acid His tag) GQPREPQVYTLPPSQETMTKNQVSLTCLVKGFYPSDIAVEWESNGQPENNYKTTPPVLDSDGSFFLYSRLTVDKSRWQEGNVFSCSVMHEALHNHYTQKSLSLSLGK |  |  | 41000 nM | 0.0012 fold
CH2-CH3 fragment of human IgG4 with R409A (other, UniProt P01861-1 221-327, looked up, name in EU numbering, range 341-447; As m7, with the mutation; also called G4-R409A; not shown: N-terminal 6 amino acid His tag) GQPREPQVYTLPPSQEEMTKNQVSLTCLVKGFYPSDIAVEWESNGQPENNYKTTPPVLDSDGSFFLYSALTVDKSRWQEGNVFSCSVMHEALHNHYTQKSLSLSLGK |  |  | 160 nM | 0.3 fold
CH2-CH3 fragment of human IgG4 with S364D (other, UniProt P01861-1 221-327, looked up, name in EU numbering, range 341-447; As m7, with the mutation; also called G4-S364D; not shown: N-terminal 6 amino acid His tag) GQPREPQVYTLPPSQEEMTKNQVDLTCLVKGFYPSDIAVEWESNGQPENNYKTTPPVLDSDGSFFLYSRLTVDKSRWQEGNVFSCSVMHEALHNHYTQKSLSLSLGK |  |  | 47 nM | 1.02 fold
CH2-CH3 fragment of human IgG4 with F405L (other, UniProt P01861-1 221-327, looked up, name in EU numbering, range 341-447; As m7, with the mutation; also called G4-F405L; not shown: N-terminal 6 amino acid His tag) GQPREPQVYTLPPSQEEMTKNQVSLTCLVKGFYPSDIAVEWESNGQPENNYKTTPPVLDSDGSFLLYSRLTVDKSRWQEGNVFSCSVMHEALHNHYTQKSLSLSLGK |  |  | 25000 nM | 0.0019 fold
CH2-CH3 fragment of human IgG4 with R409L (other, UniProt P01861-1 221-327, looked up, name in EU numbering, range 341-447; As m7, with the mutation; also called G4-R409L; not shown: N-terminal 6 amino acid His tag) GQPREPQVYTLPPSQEEMTKNQVSLTCLVKGFYPSDIAVEWESNGQPENNYKTTPPVLDSDGSFFLYSLLTVDKSRWQEGNVFSCSVMHEALHNHYTQKSLSLSLGK |  |  | 15 nM | 3.2 fold
CH2-CH3 fragment of human IgG4 with R409K (other, UniProt P01861-1 221-327, looked up, name in EU numbering, range 341-447; As m7, with the mutation; also called G4-R409K; not shown: N-terminal 6 amino acid His tag) GQPREPQVYTLPPSQEEMTKNQVSLTCLVKGFYPSDIAVEWESNGQPENNYKTTPPVLDSDGSFFLYSKLTVDKSRWQEGNVFSCSVMHEALHNHYTQKSLSLSLGK |  |  | 8 nM | 6 fold
CH2-CH3 fragment of wild type human IgG4 (other, UniProt P01861-1 221-327, looked up, range 341-447; His-tagged fragment without hinge; the KD is its non-covalent self-association (CH3-CH3 homodimer); not shown: N-terminal 6 amino acid His tag) GQPREPQVYTLPPSQEEMTKNQVSLTCLVKGFYPSDIAVEWESNGQPENNYKTTPPVLDSDGSFFLYSRLTVDKSRWQEGNVFSCSVMHEALHNHYTQKSLSLSLGK |  |  | 48 nM | 1 fold
CH2-CH3 fragment of human IgG1 with K370T (other, UniProt P01857-1 224-330, looked up, name in EU numbering, range 341-447; As m1, with the mutation; also called G1-K370T; not shown: N-terminal 6 amino acid His tag) GQPREPQVYTLPPSRDELTKNQVSLTCLVTGFYPSDIAVEWESNGQPENNYKTTPPVLDSDGSFFLYSKLTVDKSRWQQGNVFSCSVMHEALHNHYTQKSLSLSPGK |  | 0.07 fold | 45 nM | 
CH2-CH3 fragment of human IgG4 with K370Q (other, UniProt P01861-1 221-327, looked up, name in EU numbering, range 341-447; As m7, with the mutation; also called G4-K370Q; not shown: N-terminal 6 amino acid His tag) GQPREPQVYTLPPSQEEMTKNQVSLTCLVQGFYPSDIAVEWESNGQPENNYKTTPPVLDSDGSFFLYSRLTVDKSRWQEGNVFSCSVMHEALHNHYTQKSLSLSLGK |  |  | 11 nM | 4.3 fold
CH2-CH3 fragment of human IgG1 with T350I-K370T-F405L (other, UniProt P01857-1 224-330, looked up, name in EU numbering, range 341-447; also called G1-ITL; not shown: N-terminal 6 amino acid His tag) GQPREPQVYILPPSRDELTKNQVSLTCLVTGFYPSDIAVEWESNGQPENNYKTTPPVLDSDGSFLLYSKLTVDKSRWQQGNVFSCSVMHEALHNHYTQKSLSLSPGK | 1200 nM | 0.003 fold | 1000 nM | 
